The source of these data is PMC5340530, “YOD1/TRAF6 association balances p62-dependent IL-1 signaling to NF-κB” (eLife, 2017).

The experiment has as its target T1, recombinant GST-YOD1 (UniProt Q5VVQ6 1-348).
T1 construct: YOD1 (OTUD2, DUBA8); A GST-YOD1 truncation product is seen in the blots (asterisk)
Put plainly: pull-down; GST-YOD1 (or GST) on Glutathione Sepharose 4B; candidate protein incubated 2 hr at 4°C in assay buffer with 0,5% Triton X100; Western blot or Coomassie. The note with it: both partners purified. For orientation: Immunoblotting shows a protein as a band on a membrane.

B1: HIS-TRAF6 MATH (346-504) (domain or fragment, UniProt Q9Y4K3 346-504, looked up)
chain: AQQCNGIYIWKIGNFGMHLKCQEEEKPVVIHSPGFYTGKPGYKLCMRLHLQLPTAQRCANYISLFVHTMQGEYDSHLPWPFQGTIRLTILDQSEAPVRQNHEEIMDAKPELLAFQRPTIPRNPKGFGYVTFMHLEALRQRTFIKDDTLLVRCEVSTRFD
notes: also called C-terminal HIS-TRAF6 MATH; TRAF6 MATH domain
On to B1, for which the binding result is recorded as “binds”.

B2: HIS-TRAF6 CC-MATH (310-522) (domain or fragment, UniProt Q9Y4K3 310-522, looked up)
chain: DHQIRELTAKMETQSMYVSELKRTIRTLEDKVAEIEAQQCNGIYIWKIGNFGMHLKCQEEEKPVVIHSPGFYTGKPGYKLCMRLHLQLPTAQRCANYISLFVHTMQGEYDSHLPWPFQGTIRLTILDQSEAPVRQNHEEIMDAKPELLAFQRPTIPRNPKGFGYVTFMHLEALRQRTFIKDDTLLVRCEVSTRFDMGSLRREGFQPRSTDAGV
notes: TRAF6, coiled-coil and MATH domains, residues 310-522; also called HIS-TRAF6 310–522; TRAF6 C-terminus
Take B2: the binding result was “binds”.
